# According to US20260266848A1, “COMPOSITIONS AND METHODS FOR DIAGNOSING AND TREATING DYSTONIA” (Duke University, priority 2023, published 2026):
# B1: Atg7 (protein, UniProt Q9D906 1-698, looked up)
# Ubiquitin-like …: MGDPGLAKLQFAPFNSALDVGFWHELTQKKLNEYRLDEAPKDIKGYYYNGDSAGLPTRLTLEFSAFDMSASTPAHCCPAMGTLHNTNTLEAFKTADKKLLLEQSANEIWEAIKSGAALENPMLLNKFLLLTFADLKKYHFYYWFCCPALCLPESIPLIRGPVSLDQRLSPKQIQALEHAYDDLCRAEGVTALPYFLFKYDDDTVLVSLLKHYSDFFQGQRTKITVGVYDPCNLAQYPGWPLRNFLVLAAHRWSGSFQSVEVLCFRDRTMQGARDVTHSIIFEVKLPEMAFSPDCPKAVGWEKNQKGGMGPRMVNLSGCMDPKRLAESSVDLNLKLMCWRLVPTLDLDKVVSVKCLLLGAGTLGCNVARTLMGWGVRHVTFVDNAKISYSNPVRQPLYEFEDCLGGGKPKALAAAERLQKIFPGVNARGFNMSIPMPGHPVNFSDVTMEQARRDVEQLEQLIDNHDVIFLLMDTRESRWLPTVIAASKRKLVINAALGFDTFVVMRHGLKKPKQQGAGDLCPSHLVAPADLGSSLFANIPGYKLGCYFCNDVVAPGDSTRDRTLDQQCTVSRPGLAVIAGALAVELMVSVLQHPEGGYAIASSSDDRMNEPPTSLGLVPHQIRGFLSRFDNVLPVSLAFDKCTACSPKVLDQYEREGFTFLAKVFNSSHSFLEDLTGLTLLHQETQAAEIWDMSDEETV
# B2: Cyb5r3 (protein, UniProt Q9DCN2 2-301, looked up)
# NADH-cytochrome b5 reductase 3: GAQLSTLSHVVLSPVWFIYSLFMKLFQRSTPAITLENPDIKYPLRLIDKEVISPDTRRFRFALPSPQHILGLPIGQHIYLSTRIDGNLVIRPYTPVSSDDDKGFVDLVVKVYFKDTHPKFPAGGKMSQYLENMKIGDTIEFRGPNGLLVYQGKGKFAIRADKKSNPVVRTVKSVGMIAGGTGITPMLQVIRAVLKDPNDHTVCYLLFANQSEKDILLRPELEELRNEHSARFKLWYTVDKAPDAWDYSQGFVNEEMIRDHLPTPGEEPLILMCGPPPMIQFACLPNLERVGHPKERCFTF
# B3: Dbi (protein, UniProt P31786 2-87, looked up)
# Acyl-CoA-binding protein: SQAEFDKAAEEVKRLKTQPTDEEMLFIYSHFKQATVGDVNTDRPGLLDLKGKAKWDSWNKLKGTSKESAMKTYVEKVDELKKKYGI
# B4: Adamts5 (protein, UniProt Q9R001 262-930, looked up)
# A disintegrin and …: SISRARQVELLLVADSSMARMYGRGLQHYLLTLASIANRLYSHASIENHIRLAVVKVVVLTDKDTSLEVSKNAATTLKNFCKWQHQHNQLGDDHEEHYDAAILFTREDLCGHHSCDTLGMADVGTICSPERSCAVIEDDGLHAAFTVAHEIGHLLGLSHDDSKFCEENFGTTEDKRLMSSILTSIDASKPWSKCTSATITEFLDDGHGNCLLDLPRKQILGPEELPGQTYDATQQCNLTFGPEYSVCPGMDVCARLWCAVVRQGQMVCLTKKLPAVEGTPCGKGRVCLQGKCVDKTKKKYYSTSSHGNWGSWGPWGQCSRSCGGGVQFAYRHCNNPAPRNSGRYCTGKRAIYRSCSVTPCPPNGKSFRHEQCEAKNGYQSDAKGVKTFVEWVPKYAGVLPADVCKLTCRAKGTGYYVVFSPKVTDGTECRPYSNSVCVRGRCVRTGCDGIIGSKLQYDKCGVCGGDNSSCTKIIGTFNKKSKGYTDVVRIPEGATHIKVRQFKAKDQTRFTAYLALKKKTGEYLINGKYMISTSETIIDINGTVMNYSGWSHRDDFLHGMGYSATKEILIVQILATDPTKALDVRYSFFVPKKTTQKVNSVISHGSNKVGPHSTQLQWVTGPWLACSRTCDTGWHTRTVQCQDGNRKLAKGCLLSQRPSAFKQCLLKKC
# B5: Alad (protein, UniProt P10518 1-330, looked up)
# Delta-aminolevulinic acid …: MHHQSVLHSGYFHPLLRSWQTAASTVSASNLIYPIFVTDVPDDVQPIASLPGVARYGVNQLEEMLRPLVEAGLRCVLIFGVPSRVPKDEQGSAADSEDSPTIEAVRLLRKTFPSLLVACDVCLCPYTSHGHCGLLSENGAFLAEESRQRLAEVALAYAKAGCQVVAPSDMMDGRVEAIKAALLKHGLGNRVSVMSYSAKFASCFYGPFRDAAQSSPAFGDRRCYQLPPGARGLALRAVARDIQEGADMLMVKPGLPYLDMVREVKDKHPELPLAVYQVSGEFAMLWHGAQAGAFDLRTAVLETMTAFRRAGADIIITYFAPQLLKWLKEE
# B6: Fh (protein, UniProt P97807 42-507, looked up)
# Fumarate hydratase, …: ASQNSFRVEFDTFGELKVPTDKYYGAQTVRSTMNFKIGGATERMPIPVIQAFGILKRAAAEVNQEYGLDPKIASAIMKAADEVAEGKLNDHFPLVVWQTGSGTQTNMNVNEVISNRAIEMLGGELGSKKPVHPNDHVNKSQSSNDTFPTAMHIAAAVEVHKVLLPGLQKLHDALSAKSKEFAQVIKIGRTHTQDAVPLTLGQEFSGYVQQVQYAMVRIKAAMPRIYELAAGGTAVGTGLNTRIGFAEKVAAKVAALTGLPFVTAPNKFEALAAHDALVELSGAMNTAACSLMKIANDIRFLGSGPRSGLGELILPENEPGSSIMPGKVNPTQCEAMTMVAAQVMGNHVAVTVGGSNGHFELNVFKPMMIKNVLHSARLLGDASVSFTDNCVVGIQANTERINKLMNESLMLVTALNPHIGYDKAAKIAKTAHKNGSTLKETAIELGYLTAEQFDEWVKPKDMLGPK
# B7: Ptk2 (protein, UniProt P34152 2-1052, looked up)
# Focal adhesion kinase 1: AAAYLDPNLNHTPSSSTKTHLGTGMERSPGAMERVLKVFHYFESSSEPTTWASIIRHGDATDVRGIIQKIVDSHKVKHVACYGFRLSHLRSEEVHWLHVDMGVSSVREKYELAHPPEEWKYELRIRYLPKGFLNQFTEDKPTLNFFYQQVKSDYMQEIADQVDQEIALKLGCLEIRRSYWEMRGNALEKKSNYEVLEKDVGLKRFFPKSLLDSVKAKTLRKLIQQTFRQFANLNREESILKFFEILSPVYRFDKECFKCALGSSWIISVELAIGPEEGISYLTDKGCNPTHLADFNQVQTIQYSNSEDKDRKGMLQLKIAGAPEPLTVTAPSLTIAENMADLIDGYCRLVNGATQSFIIRPQKEGERALPSIPKLANSEKQGMRTHAVSVSETDDYAEIIDEEDTYTMPSTRDYEIQRERIELGRCIGEGQFGDVHQGVYLSPENPALAVAIKTCKNCTSDSVREKFLQEALTMRQFDHPHIVKLIGVITENPVWIIMELCTLGELRSFLQVRKYSLDLASLILYAYQLSTALAYLESKRFVHRDIAARNVLVSSNDCVKLGDFGLSRYMEDSTYYKASKGKLPIKWMAPESINFRRFTSASDVWMFGVCMWEILMHGVKPFQGVKNNDVIGRIENGERLPMPPNCPPTLYSLMTKCWAYDPSRRPRFTELKAQLSTILEEEKVQQEERMRMESRRQATVSWDSGGSDEAPPKPSRPGYPSPRSSEGFYPSPQHMVQTNHYQVSGYPGSHGIPAMAGSIYQGQASLLDQTELWNHRPQEMSMWQPSVEDSAALDLRGMGQVLPPHLMEERLIRQQQEMEEDQRWLEKEERFLKPDVRLSRGSIDREDGSFQGPTGNQHIYQPVGKPDPAAPPKKPPRPGAPGHLSNLSSISSPADSYNEGVKLQPQEISPPPTANLDRSNDKVYENVTGLVKAVIEMSSKIQPAPPEEYVPMVKEVGLALRTLLATVDETIPALPASTHREIEMAQKLLNSDLGELISKMKLAQQYVMTSLQQEYKKQMLTAAHALAVDAKNLLDVIDQARLKMLGQTRPH
# B8: Extl2 (protein, UniProt Q9ES89 1-330, looked up)
# Exostosin-like 2: MMRGCHICKLPGRVMGIRVLRFSLVVILVLLLVAGALTNLLPNIKEDKMLTLRREIKSPSKSALDSFTLIMQTYNRTDLLLRLLNHYQAVPSLHKVIVVWNNVGEKGPEELWNSLGPHPIPVIFKPQTANKMRNRLQVFPEVETNAVLMVDDDTLISAQDLVFAFSIWQQFPDQIIGFVPRKHVSTSSGIYSYGGFELQTPGPGNGDQYSMVLIGASFFNSKYLELFQKQPAAVHALIDETQNCDDIAMNFLVTRHTGKPSGIFVKPINMVNLEKETNGYSGMWHRAEHFLQRSYCINKLVNIYDGMPLKYSNIMISQFGFPYANHKSKM
# B9: Pdia3 (protein, UniProt P27773 25-505, looked up)
# Protein disulfide-isomerase A3: SDVLELTDENFESRVSDTGSAGLMLVEFFAPWCGHCKRLAPEYEAAATRLKGIVPLAKVDCTANTNTCNKYGVSGYPTLKIFRDGEEAGAYDGPRTADGIVSHLKKQAGPASVPLRTEEEFKKFISDKDASVVGFFRDLFSDGHSEFLKAASNLRDNYRFAHTNIESLVKEYDDNGEGITIFRPLHLANKFEDKTVAYTEKKMTSGKIKKFIQDSIFGLCPHMTEDNKDLIQGKDLLTAYYDVDYEKNAKGSNYWRNRVMMVAKKFLDAGHKLNFAVASRKTFSHELSDFGLESTTGEVPVVAIRTAKGEKFVMQEEFSRDGKALEQFLQEYFDGNLKRYLKSEPIPESNEGPVKVVVAENFDDIVNEEDKDVLIEFYAPWCGHCKNLEPKYKELGEKLSKDPNIVIAKMDATANDVPSPYEVKGFPTIYFSPANKKLTPKKYEGGRELNDFISYLQREATNPPIIQEEKPKKKKKAQEDL
# System: DYT-TOR1A MEF EVs
# Assay: Quantitative LC-MS/MS proteomics of EVs from drug-treated DYT-TOR1A MEF cultures (ritonavir, salubrinal)
# Format: cell-based, mouse
# Design: key to RTV Corrective Direction / RTV Corrective Direction, Grwd1 / RTV Corrective Direction, Srrm2 / RTV Corrective Direction, Rbm17 / RTV Corrective Direction, Dcaf8 / RTV Corrective Direction, Edil3 / RTV Corrective Direction, Timp3 / RTV Corrective Direction, Heatr3 / RTV Corrective Direction, Brd4 / RTV Corrective Direction, P3h4 / RTV Corrective Direction, Pacsin3 / RTV Corrective Direction, Naa50 / RTV Corrective Direction, Lpar6 / RTV Corrective Direction, Ndrg1 / RTV Corrective Direction, Kntc1 / RTV Corrective Direction, Cdk11b / RTV Corrective Direction, Sumo1 / RTV Corrective Direction, Lsm4 / RTV Corrective Direction, Hmga2 / RTV Corrective Direction, Cstf1 / RTV Corrective Direction, Tes / RTV Corrective Direction, Sbno1 / RTV Corrective Direction, Unc119b / RTV Corrective Direction, Cfdp1 / RTV Corrective Direction, Sec61b: YES = protein abundance effect opposite to DYT/WT
# Conditions: EV protein abundance, DYT + RTV (ritonavir) vs DYT, direction compared with DYT/WT
row,Molecule,RTV Corrective Direction
1,B1,YES
2,B2,YES
3,B3,YES
4,B4,YES
5,B5,YES
6,B6,YES
7,B7,YES
8,B8,YES
9,B9,YES

# Same assay, conditions: EV protein abundance, ritonavir (RTV)-treated DYT vs DYT
row,Molecule,DYT + RTV/DYT Cohen's d
1,B1,0.61
2,B2,0.64
3,B3,0.91
4,B4,0.76
5,B5,1.57
6,B6,2.12
7,B7,0.10
8,B8,0.12
9,B9,0.37

# System: WT MEF EVs
# Assay: Quantitative LC-MS/MS proteomics of EVs from ISRIB-treated WT MEF cultures
# Format: cell-based, mouse
# Design: key to ISRIB and DYT Parallel Direction / ISRIB and DYT Parallel Direction, Ctdsp1 / ISRIB and DYT Parallel Direction, Pcdh19 / ISRIB and DYT Parallel Direction, Tspan7 / ISRIB and DYT Parallel Direction, Myo1e / ISRIB and DYT Parallel Direction, Plpp3 / ISRIB and DYT Parallel Direction, Sh3bp4 / ISRIB and DYT Parallel Direction, Dnajc7 / ISRIB and DYT Parallel Direction, Drg1 / ISRIB and DYT Parallel Direction, Maea: YES = protein abundance effect similar to DYT/WT
# Conditions: EV protein abundance, ISRIB-treated WT vs WT
row,Molecule,WT + ISRIB/WT Cohen's d
1,B1,−2.35
2,B2,0.64
3,B3,−2.44
4,B4,−2.06
5,B5,−1.50
6,B6,−0.28
7,B7,−3.26
8,B8,−1.42
9,B9,0.39

# Same assay, conditions: EV protein abundance, WT + ISRIB vs WT, direction compared with DYT/WT
row,Molecule,ISRIB and DYT Parallel Direction
1,B1,YES
2,B2,YES
3,B3,YES
4,B4,YES
5,B5,YES
6,B6,YES
7,B7,YES
8,B8,YES
9,B9,YES
